Test results published in patent publication US20200165333A1 (University of Pennsylvania, published 2020).

Experiments:
[1] = biological target: T1, human platelet factor 4 (PF4) (human, UniProt P02776 32-101); test: SPR (Biacore), human PF4 immobilized on CM5 chip; antibody expressed in 293T cells
T1 construct: Immobilized on a CM5 chip (Biacore) or on an ELISA plate; also called human PF4
T1 sequence (looked up): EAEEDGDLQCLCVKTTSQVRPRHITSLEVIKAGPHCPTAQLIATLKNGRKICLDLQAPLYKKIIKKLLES
Procedure: (§1) The binding affinity of the mammalian-cell-expressed RTO antibodies to human PF4 immobilized on the surface of a CM5 chip was evaluated using Biacore technology. The humanized antibody (huLight, huHeavy) binds to human PF4 at nM levels (Table 1), which is almost identical to the hybridoma-expressed and mammalian-cell-expressed parental antibody mRTO (mLight, mHeavy).

[2] = biological target: T1, human platelet factor 4 (PF4); test: SPR (Biacore), human PF4 immobilized on CM5 chip; antibody expressed in expi-CHO cells
Procedure: as §1

B1: humanized RTO antibody (huLight, huHeavy) (antibody, V domains shown)
VH: EVQLVESGGGLVQPGGSLRLSCAASGFAFSRYDMSWVRQAPGKGLEWVATITSGDNYTYYPDSVKGRFTISRDNSKNTLYLQMNSLRAEDTAVYYCTRQGLLYYAMDYWGQGTLVTVSS
VL: DIQMTQSPSSLSASVGDRVTISCSASQGINNYLSWYRQKPGKAPKLLIYYTSSLHSGVPSRFSGSGSGTDFTLTISSLQPEDFATYFCQQFSKLPYTFGGGTKVEIKR
notes: Tested as expressed in 293T and in expi-CHO cells; also called huRTO; HuRTO
[1]
  Kd: 0.75 nM
[2]
  Kd: 2 nM
